Assay results taken from publication PMC4794788, “Cell‐free synthesis of isotopically labelled peptide ligands for the functional characterization of G protein‐coupled receptors” (FEBS Open Bio, 2015).
Entries after “also recorded” stand apart in the source; their conditions may differ.

Legend:
[1] = molecular target: T1, human complement 5a receptor (C5aR) (Homo sapiens, UniProt P21730); assay: Specific binding of [^3H]‐C5a^CF to C5aR (optimization of translation and assay conditions)
T1 construct: 10x His (N); FLAG (N); StrepII (C); made in house; host or cells: Sf9 insect cells (recombinant baculovirus, pOET5 / flashBAC); membrane preparation
T1 sequence (P21730 1-350): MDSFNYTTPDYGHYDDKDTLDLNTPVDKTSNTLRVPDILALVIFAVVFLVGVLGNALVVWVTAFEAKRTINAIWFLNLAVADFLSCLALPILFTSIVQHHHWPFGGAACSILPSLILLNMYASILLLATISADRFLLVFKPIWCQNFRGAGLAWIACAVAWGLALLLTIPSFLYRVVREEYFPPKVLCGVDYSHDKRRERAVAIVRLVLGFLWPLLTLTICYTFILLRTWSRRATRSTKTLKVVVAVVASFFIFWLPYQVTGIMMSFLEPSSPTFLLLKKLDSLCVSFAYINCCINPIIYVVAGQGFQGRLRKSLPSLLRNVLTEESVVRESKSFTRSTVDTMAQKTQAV
Method: For the cell‐free synthesis of radioligands one amino acid was replaced with a tritiated variant depending on its abundance in the respective ligand. Complement 5a was produced in the presence of 1 μM (FM)/2.1 μM (RM) L‐[2,3‐^3H]‐proline (specific activity 55 Ci·mmol^−1, Perkin Elmer, Boston, USA). […] The cell‐free reaction was initiated omitting the labelled amino acid and incubated at 30 °C, 100 rpm for 3 h. The reaction mix was removed from the D‐tube™ dialyzer and incubated with 0.2 mL Ni‐NTA magnetic agarose beads suspension (Qiagen) per mL reaction mix for 10 min to remove undesired side products translated with endogenously present amino acids from the S30 extract. The reaction mix was removed from the magnetic beads, supplemented with 0.25 mM L‐histidine to account for potential losses in the IMAC (immobilized metal ion affinity chromatography) step and the tritium‐labelled amino acid. The feeding mix was discarded and replaced with a fresh mix containing the labelled amino acid. Reactions were incubated at 30 °C in a water bath under constant shaking overnight.
For purification of tritium‐labelled complement 5a ([^3H]‐C5a^CF), reaction and feeding mixes were pooled and applied to a 1 mL HisTrap FF column (GE Healthcare) equilibrated in buffer C^C5a using a peristaltic pump. The column was washed with 4 CV buffer C1^C5a, 4 CV buffer C2^C5a and eluted in 4 CV buffer D^C5a. […] Buffer exchange to buffers C^C5a or C^ET−1 was performed by repeated concentration and dilution in a 3 kDa MWCO concentrator (Amicon) and protein concentration was calculated using the specific activity of incorporated [^3H]‐Pro or [^3H]‐Phe residues.
The complement 5a receptor was coproduced with Gαi2 in Sf9 insect cells. The cDNA encoding the human complement 5a receptor flanked by an N‐terminal 10x His and FLAG tag and a C‐terminal StrepII tag was cloned into the pOET5 transfer vector (Oxford Expression Technologies, Oxford, UK). pOET5 contains two expression cassettes, the receptor is expressed under the control of a polyhedron promoter; Gαi2 expression is regulated by a p10 promoter. […]

C5aR = C5aR in native human tissues; literature comparison; cited from earlier work
Method: Table 1 Binding parameters of cell‐free synthesized radioligands | column: Literature KD [nM] || As the interaction between C5a and its receptor is mainly mediated by the disulphide bridged core region of C5a (residues 21–55, 22) and the C‐terminal region (especially Arg^74 30) the N‐terminal hexa‐histidine tag was not removed. The cell‐free synthesized ligand binds to the complement 5a receptor with a dissociation constant of 1.18 ± 0.27 nM (Fig. 4A), which corresponds to values determined by Gerard and Gerard for C5aR in native human tissues (1 nM 31, Table 1). Competition experiments with the unlabelled small molecule inverse agonist NDT 9513727 and the peptide antagonist H2N‐ChaW resu ...

B1: [^3H]‐C5a^CF: cell‐free‐synthesized tritium‐labelled complement 5a with N‐terminal hexa‐histidine tag; contains three proline residues (protein, UniProt P01031 678-751, looked up)
C5a anaphylatoxin: TLQKKIEEIAAKYKHSVVKKCCYDGACVNNDETCEQRAARISLGPRCIKAFTECCVVASQLRANISHKDMQLGR
modifications: C5a anaphylatoxin tritium label
[1]; first translation trials, produced with DsbA and IMAC purified, no pretranslation step
  Specific binding to the C5aR: only low and nonsignificant binding to the C5aR; also recorded: specific binding is low and nonsignificant
[1]; pretranslation step plus NaCl in assay and wash buffer
  Specific binding to the C5aR: further increases the detected specific binding
[1]; with pretranslation step to remove endogenous proline
  Specific binding to the C5aR: binding specifically to the C5aR and displaying low nonspecific background; also recorded: strongly increased (dark grey bar) and statistically significant
C5aR
  Kd: 1 nM
